B1: TPR t1 (parent)
chain: GACCAAUCUGCCCUCAGAGCUCGAGAACAUCUUCGGAUGCAGAGGAGGCAGGCUUCGGUGGCGCGAUAGCGCCAACGUCCUCAACCUCCAAUGCAUCCCACCACAUGAUGAUGCCUGAAGAGCCUUGGUUUUUUG

Variants of: B1
Test: polymerase ribozyme fitness, log enrichment relative to wild type (log ratio); higher = more active; in vitro selection for triplet polymerase activity
Outline: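 Only genotypes with ≥10 input reads and ≥1 read per output were kept after Illumina sequencing of input and output libraries. These libraries were PCR-built, transcribed mutants of each subunit of a heterodimeric triplet polymerase ribozyme, each put through one triplicate in vitro selection round with frozen incubation at −7 °C, gel excision of extended constructs, streptavidin-bead capture and RT-PCR. Fitness is a logarithmic ratio of genotype enrichment to wild-type enrichment, from inverse-variance-weighted replicate averages, with the logarithm in base 2.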

Variant | polymerase ribozyme fitness (log ratio)
GACCAAUCUGCCCUCAGAGCUCGAGAUCAUCUUCGGAUGCAGAGGAGGCAGGCUUCGGUGGCGCGAUAGCCCCAACGUCCUCAACCUCCAAUGCAUCCCACCACAUGAUGAUGCCUGAAGAGCCUUGGUUUUUUG | -4.45
GACCAAUCUGCCCUCAGAGCUCGAGAUCAUCUUCGGAUGCAGAGGAGGCAGGCUUCGGUGGCGCGAUAGCGCCAACGUCCUCAACCUCCAAUGCAACCCACCACAUGAUGAUGCCUGAAGAGCCUUGGUUUUUUG | -4.07
GACCAAUCUGCCCUCAGAGCUCGAGAUCAUCUUCGGAUGCAGAGGAAGCAGGCUUCGGAGGCGCGAUAGCGCCAACGUCCUCAACCUCCAAUGCAUCCCACCACAGGAUGAUGCCUGAAGAGCCUUGGUUUUGUG | -4.03
GACCAAUCUGCCCUCAGAGCUCGAGAUCAUCUUCGGAUGCAGAGGAGCCAGGCUUCGGUGGCGCGAUAGCGCCAACGUCCUCAACCUCCAAUGCAUCCCACCACAUGAUGAUGCCUGAAGAGCCUUGGUUUUUUG | -3.79
GACCAAUCUGCCCUCAGAGCUCGAGAUCAUCUUCGGAUGCAGAGGAGGCAGGCUGAGGUGGCGCGAUACCGCCAACGUCCUCAACCUCCAAUGCAUCCCACCACAUGAUGAUGCCUGAAGAGCCUUGGUUUUUUG | -6.66
GACCAAUCUGCCCUCAGAGCUCGAGAUCAUCUUCGGAUGCAGAGGAGGCAGGCGUCGGUGGCGCGAUAGCGCCAACGUCCUCAACCUCCAAUGCAUCCCACCACAUGAUGAUGCCAGAAGAGCAUUAGUUUUUUG | -3.59
GACCAAUCUGCCCUCAGAGCUCGAGAUCAUCUUCGGAUGCAGAGGAGCCAGGCUUCGGUGGCGCGAUAGCGCCAACGUCCUCAACCUCCAAUGCAUCCCACCACAUGAUGAUGCCUGAAGAGCGUCGAUUUUUUG | -4.06
GACCAAUCUGCCCUCAGAGCUCGAGAUCAUCUUCGGAUGCAGAGGAAGCAGGCUUCGGUGGCGCGAUAGCGCCAACGUCCUCAACCUCCAAUGCAUCCCACCACAUGAUGAUGCCUGAAGAGCCUUGGUUUUUUG | -4.02
GACCAAUCUGCCCUCAGAGCUCGAGAUCAUCUUCGGAUGCAGAGGACGCAGGCUUCGGUGGCGCGAUAGCGCCAACGUCCUCAACCUCCAAUGCAUCCCACCACAUGAUGAUGCCUGAAGAGCCUUGGUUUUUUG | -4.91
GACCAAUCUGCCCUCAGAGCUCGAGAUCAUCUUCGGAUGCAGACGAGGCAGGCUUCGGUGGCGCGAUAGCGUCAACGUCCUCAACCUCCAAUGCAUCCCACCAUAUGAUGAUGCCUGAAGAGCCUUGGUUUUUUG | -4.18
GACCAAUCUGCCCUCAGAGCUCGAGAUCAUCUUCGGAUGCAGAGGAGGCAGACUUCGGUGGCGCGAUAGCGCAAACGUCCUCAACCUCCACUGCAUCCCACCACAUGAUGAAGCCUGAAGAGCCUUGGUUUUUUG | -4.52
GACCAAUCUGCCCUCAGAGCUCGAGAUCAUCUUCGGAUGCAGAGGAGGCAGGCUUCGGUGGCGCGAUAGCGCCAACGUCCUCAACCGCCAAUGCAUCCCACCACAUGAUGAUGCCUGAAGAACCUUGGUUUUUUG | -3.02
GACCAAUCUGCCCUCAGAGCUCGAGAUCAUCUUCGGAUGCAGAGGAGGCAGGCUUCGGUAGUGCGAUAGCGCCAACGUCCUCAACCUCCAAUGCAUCCCACCACAUGAUGAUGCCUGAACAGCCUUGGUUUUUUG | -2.69
GACCAAUCUGCCCUCAGAGCUCGAGAUCAUCUUCGGAUGCAGAGGAGGCAGGCAUCGGUGGCGCGAUAGCGCCAACGUCCUCAACCUCCAAUGCAUCCCACCACAUGAUGAUGCAUGAAGAGCCUUGGUUUUUUG | -3.07
GACCAAUCUGCCCUCAGAGCUCGAGAUCAUCUUCGCAUGCAGACGAGGCAGGCUUCGGUGGCGCGAUAGCGCCAACGUCCUCAACCUCCAAUGCAUCCCACCACAUGAUGAUGCCUGAAGAACCUGGGUUUUUUG | -5.95
GACCAAUCUGCCCUCAGAGCUCGAGAUCAUCUUCGGAUGCAGAGGAGGCAGGCUUCGGUGGCGCGAUAUCGCCAACGUCCUCAACCUCCAAUGCAUCCCAACACAUGAUGAUGCCUGAAGAGCCUUGGUUUUUUG | -2.96
GACCAAUCUGCCCUCAGAGCUCGAGAUCAUCUUCGUAUGCAGAGGAGGCAGGCUUCGGUUGCGCGAUAGCGCCAACGUCCUCAACCUCCAAUGCAUCCCACCACAUGAUGAUGCCUGAAGAGCCUUGGUUUUUUG | -4.13
GACCAAUCUGCCCUCAGAGCUCGAGAUCAUCUUCGGAUGCAGAGGAGGCAUGCUUCGGUGGAGCGAUAGUGCCAACGUCCUCAACCUCCAAUGCAUCCCACCACAUGAUGAUGCGUGAAGAGCCUUGGUUUUUUG | -6.61
GACCAAUCUGCCCUCAGAGCUCGAGAUCAUCUUCGGAUGCAGAGGAGGCAGGCUUCGGUGGCGCGAUAGCGCCAACGUCCUCAACCUCCAAUGCAUCCCACCACAUGAUGAUGCCUGAAUAGCCUUGGUUUUUUG | -2.65
GACCAAUCUGCCCUCAGAGCUCGAGAUCAUCUUCGGAUGCAGAGGAGGCAGGCUUCGGUGGCGCGAUAGCGCCAACGUCCUCAACCUCCAAUGCAUCCCACCACAUGAUGAUGCCUGAAAAGCCUUGGUUUUUUG | -1.65
GACCAAUCUGCCCUCAGAGCUCGAGAUCAUCUUCGGAUGCAGAUGAGGCAGGCUUCGGUGGCGCGAUAGCGCCAACGUCCUCAACCUCCAAUGCAUCCCACCACAUGAUGAUGCCUGAAGAGCCUUGGUUUUUUG | -3.87
